Data: patent US20190309044A1, “POLYPEPTIDES AND USES THEREOF AS A DRUG FOR TREATMENT OF AUTOIMMUNE DISORDERS” (Compugen Ltd., priority 2017, published 2019)

Tested on: healthy human skin transplanted onto beige-SCID mice
Experiment: Humanized psoriasis model, human skin xenografts on beige-SCID mice
Type: in vivo, mouse
Conditions: IHC; vs PBS
Text: In this model, psoriasis is induced in xenotransplants of healthy human skin transplanted onto beige severe combined immunodeficiency (SCID) mice followed by intradermal (i.d.) injection of IL-2 enriched Peripheral Blood Mononuclear Cells (PBMCs) isolated from blood of psoriasis patients (Nickoloff, 1995; Wrone-Smith, 1996 Gilhar et al., 2002, 2006, 2011). The activity of these compounds was compared to that of Enbrel, a TNF inhibitor which is an approved biological drug for treatment of psoriasis. As a control for model robustness, we used dexamethasone, a steroid with suppressive effects on inflammatory cytokines and chemokines such as TNF-alpha and interferon-gamma which cause severe psoriasis. All treatments were administered intradermally, except for dexamethasone which was given topically.
2.2. Study Protocol A) Healthy human skin pieces with a width of 0.4 mm and surface area of 1.5×1.5 cm were provided from residual skin of routine plastic surgery procedures from the Plastic Surgery Department of the Rambam Medical Center, Israel. In addition, 20 mL blood samples were taken from psoriatic patients. B) Seventy (70) beige-severe combined immunodeficient mice (SCID) (weight ˜20-25 g) were included in this study. Normal healthy human donor skin was transplanted onto the beige-SCID mice as previously described (Nickoloff et al., 1995; Wrone-Smith, 1996; Gilhar et al., 2002, 2006, 2011; Kalish et al., 2009) and the mice were divided into 7 groups. C) Peripheral Blood Mononuclear Cells (PBMCs) isolated from psoriatic patients' blood were cultured in the presence of IL-2 [Prospec, 100 U/mL of RPMI 1640 media, 10% human AB serum (Sigma, St. Louis, Mo.), 1% glutamine, 1% antibiotics (media components; Biological Industries, Kibbutz Beit Haemeck, Israel)] for 14 days, as previously described (Gilhar et al, 2002). D) Four weeks following engraftment, each mouse was injected intra-dermally (i.d.) into the grafted skin lesion, with 1×10^7 activated allogeneic enriched PBMCs from psoriatic patients (FIG. 20). Cells from different psoriasis patients were equally distributed between treatment groups so that each patient is represented in each treatment group. E) On the day of PBMCs injection into the skin grafts, mice were divided randomly into treatment groups (n=9-10 mice per group) and administration of all drugs started (FIG. 20). All tested compounds including the vehicle were given intradermally (intralesional), three times a week, except for dexamethasone which was given topically for 14 consecutive days (Table 3).
F) Twenty eight days after starting the injections and treatment, skin was harvested (FIG. 20). Grafts were analyzed for the following psoriatic parameters by histology: epidermal thickening (acanthosis), suprapapillary epidermal thinning (papillomatosis), hyperkeratosis, parakeratosis, orthokeratosis, agranulosis-hypogranulosis, appearance of neutrophils in the upper spinous layer or in the corneal cell layer—Munro microabscess, regular elongation of rete ridges, angiogenesis, edema and dilated tortuous blood vessels in the dermal papilla and mononuclear cell infiltrate in the papillary dermis. Epidermal thickness was measured as detailed below, and HLA-DR, ICAM-1, Ki-67 and immune infiltrates (anti-CD3 stain) were evaluated by immunohistochemistry (IHC).
The entire skin graft was excised and placed in 10% formal saline overnight. Then, the specimens were place in 70% ethanol and were embedded according to the standard H&E protocol. Histological assessment of the skin grafts was performed by light microscopy and evaluated by two blinded observers [the second observer evaluated random slides (about 25% of all slides) to compare the data obtained by the first observer. […] Epidermal thickness was determined with an ocular micrometer at a minimum of 50 points along the epidermis selected to represent points of maximal and minimal thickness.
Representative grafts were allocated for IHC analysis. […]

B1: C1ORF32 ECD-Fc (SEQ ID NO:42): human-mouse fusion protein: human C1ORF32 ECD fused to mouse immunoglobulin Fc (SEQ ID NO:42) (protein)
chain: LQVTVPDKKKVAMLFQPTVLRCHFSTSSHQPAVVQWKFKSYCQDRMGESLGMSSTRAQSLSKRNLEWDPYLDCLDSRRTVRVVASKQGSTVTLGDFYRGREITIVHDADLQIGKLMWGDSGLYYCIITTPDDLEGKNEDSVELLVLGRTGLLADLLPSFAVEIMGSENLYFQGSGEPRGPTIKPCPPCKCPAPNLLGGPSVFIFPPKIKDVLMISLSPIVTCVVVDVSEDDPDVQISWFVNNVEVHTAQTQTHREDYNSTLRVVSALPIQHQDWMSGKEFKCKVNNKDLPAPIERTISKPKGSVRAPQVYVLPPPEEEMTKKQVTLTCMVTDFMPEDIYVEWTNNGKTELNYKNTEPVLDSDGSYFMYSKLRVEKKNWVERNSYSCSVVHEGLHNHHTTKSFSRTPGK
modifications: Fusion protein human C1ORF32-ECD fused to mouse IgG2a Fc
  infiltration of T cells (CD3 positive cells): significant reduction
